Legend:
His-LSD2 = biological target: T1, His-LSD2 (Homo sapiens, UniProt Q8NB78); assay: Nucleosome demethylation assay (NPAC cofactor activity for LSD2, immunoblot); format: biochemical; conditions: for Cofactor activity: stimulation of LSD2 demethylation of nucleosomal H3K4me2: threshold dosage of His-LSD2, nucleosomes purified from HeLa
T1 construct: typically 0.5 μg full-length His-LSD2; made in house; host or cells: Sf9 insect cells
T1 sequence (Q8NB78 1-822): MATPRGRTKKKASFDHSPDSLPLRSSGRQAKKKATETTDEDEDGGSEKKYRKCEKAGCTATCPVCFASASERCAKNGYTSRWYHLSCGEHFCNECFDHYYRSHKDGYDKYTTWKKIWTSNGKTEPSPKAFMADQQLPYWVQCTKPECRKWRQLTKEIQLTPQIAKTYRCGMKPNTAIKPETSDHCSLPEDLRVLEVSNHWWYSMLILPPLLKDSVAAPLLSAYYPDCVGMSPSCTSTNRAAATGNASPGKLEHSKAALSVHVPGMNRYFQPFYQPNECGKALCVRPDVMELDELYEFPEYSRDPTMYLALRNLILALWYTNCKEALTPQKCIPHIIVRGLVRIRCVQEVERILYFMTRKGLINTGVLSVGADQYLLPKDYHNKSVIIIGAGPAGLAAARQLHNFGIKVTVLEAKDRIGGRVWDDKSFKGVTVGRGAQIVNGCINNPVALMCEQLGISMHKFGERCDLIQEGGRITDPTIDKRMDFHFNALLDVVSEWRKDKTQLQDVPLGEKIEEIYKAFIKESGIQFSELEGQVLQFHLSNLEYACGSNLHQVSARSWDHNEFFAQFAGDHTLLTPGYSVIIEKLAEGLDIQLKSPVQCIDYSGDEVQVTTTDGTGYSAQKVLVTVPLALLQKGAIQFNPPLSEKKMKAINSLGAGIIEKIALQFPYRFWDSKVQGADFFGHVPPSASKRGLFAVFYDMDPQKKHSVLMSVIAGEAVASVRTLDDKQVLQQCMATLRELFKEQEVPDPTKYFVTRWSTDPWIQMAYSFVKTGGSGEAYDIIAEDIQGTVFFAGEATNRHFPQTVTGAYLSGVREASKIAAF
Description: For nucleosome demethylation assays, typically 0.5 μg full-length His-LSD2, 1 μg NPAC protein or peptides, and 2 μg nucleosomes purified from HeLa were used, and demethylation efficiency was analyzed by SDS-PAGE electrophoresis and immunoblot using methylation specific anti-histone H3 antibodies as previously described (Shi et al. 2004).

LSD1 = LSD1 (Homo sapiens, UniProt O60341); assay: LSD1-mediated nucleosome demethylation assay; format: biochemical; conditions: 2 μg LSD1 with 5 μg cofactor protein
Description: (§1) FIG. 7A depicts the determination of the threshold dosage of purified LSD2 required for nucleosomal H3K4 demethylation. 2 μg of nucleosomes purified from HeLa were incubated with various amount of His-LSD2 proteins for 2 hours at 30° C. The demethylation reactions were analyzed by immunoblotting using indicated antibodies. […] 2 μg LSD1 in combination with 5 μg purified NPAC or CoREST protein was used for histone demethylase assays. […] Transfected cells are marked by arrows; cells shown significant reduction of H3K4me1 are marked by dotted circles. […] In contrast, coexpression of LSD2 and NPAC induces obvious global decrease of H3K4me1. […] FIG. 7D depicts immunofluorescence analyses of H3K9me2 demethylation in cells coexpressing LSD2 and full-length NPAC.

[1] = tested on: CCND1 and CCNE1 expression; assay: CCND1 and CCNE1 expression in breast cancer cells; format: cell-based; conditions: stable MDA-MB-231 cell lines, shRNA-resistant cDNA
Text: We first established stable MDA-MB-231 cell lines that express similar levels of the mutant or the wild-type full-length NPAC from cDNAs introduced with silent mutations and resistant to NPAC shRNA (data not shown). […] Thus, mutation of the LSD2-interacting residues F218, L219 and L291 of NPAC can disrupt LSD2 and NPAC functions in vivo.
We next examined if it is possible to use a small molecule to manipulate the interaction between NPAC and LSD2, thus affecting target gene expression. We have shown that a short mutant NPAC peptide (residues 214-225) can interact with LSD2 with high affinity, however, lost its cofactor activity. NPAC214-225.F217A is expected to be able to competitive inhibit the interaction between endogenous NPAC and LSD2, without stimulating LSD2 demethylase activity (FIG. 25A, right). […] Thus, unable to stimulate the histone demethylase activity of endogenous LSD2, this mutant peptide is a potent inhibitor of LSD2 function by competitively inhibiting LSD2 binding by endogenous NPAC.

LSD2 = biological target: T2, LSD2 (Homo sapiens, UniProt Q8NB78); assay: Immunofluorescence of histone methylation in cells coexpressing LSD2 and NPAC; format: cell-based; design: expressed in transfected cells; host or cells: U2OS
T2 sequence (Q8NB78 1-822): T1 sequence (Q8NB78 1-822)
Description: FIG. 1A depicts a schematic of NPAC domain structure. AT, AT-hook motif. PWWP, Pro-Trp-Trp-Pro domain (SEQ ID NO: 63). […] Tandem affinity purified NPAC and LSD2 complexes were incubated with nucleosomes purified from HeLa, and analyzed by immunoblot using indicated antibodies. […] The amount of LSD2 enzyme and NPAC cofactor proteins used in each reaction is indicated. Demethylation was assessed by Immunoblot using indicated antibodies. […] Representatives with similar levels of GFP-LSD2 are shown. See also FIGS. 7A-7D.
as §1

B1: NPAC: full-length human NPAC/GLYR1 (protein ID: Q49A26), recombinant, LSD2 cofactor (protein)
chain: MAAVSLRLGDLVWGKLGRYPPWPGKIVNPPKDLKKPRGKKCFFVKFFGTEDHAWIKVEQLKPYHAHKEEMIKINKGKRFQQAVDAVEEFLRRAKGKDQTSSHNSSDDKNRRNSSEERSRPNSGDEKRKLSLSEGKVKKNMGEGKKRVSSGSSERGSKSPLKRAQEQSPRKRGRPPKDEKDLTIPESSTVKGMMAGPMAAFKWQPTASEPVKDADPHFHHFLLSQTEKPAVCYQAITKKLKICEEETGSTSIQAADSTAVNGSITPTDKKIGFLGLGLMGSGIVSNLLKMGHTVTVWNRTAEKCDLFIQEGARLGRTPAEVVSTCDITFACVSDPKAAKDLVLGPSGVLQGIRPGKCYVDMSTVDADTVTELAQVIVSRGGRFLEAPVSGNQQLSNDGMLVILAAGDRGLYEDCSSCFQAMGKTSFFLGEVGNAAKMMLIVNMVQGSFMATIAEGLTLAHVTGQSQQTLLDILNQGQLASIFLDQKCQNILQGNFKPDFYLKYIQKDLRLAIALGDAVNHPTPMAAAANEVYKRAKALDQSDNDMSAVYRAYIH
Demethylase activity of NPAC itself (His-LSD2; NPAC alone, without LSD2): no demethylase activity
Cofactor activity: stimulation of LSD2 demethylation of nucleosomal H3K4me2 (His-LSD2; listed as His-NPAC): stimulated LSD2 activity in a dose-dependent manner
Cofactor activity: stimulation of LSD2 demethylation of nucleosomal H3K4me2 (His-LSD2; listed as wild-type NPAC): robust activity
Stimulation of LSD1 nucleosome demethylation (LSD1): no stimulatory effect on nucleosome demethylation by LSD1
Rescue of CCND1 and CCNE1 down regulation caused by NPAC shRNA [1]: prevents down regulation of CCND1 and CCNE1 by NPAC shRNA
Change of H3K9me2 and other histone marks in cells (LSD2; coexpression of NPAC and LSD2): no detectable changes
Depletion of di- and mono-methylated H3K4 in cells (LSD2; coexpression of NPAC and LSD2 vs LSD2 alone, U2OS): much more pronounced depletion of di- and mono-methylated H3K4 in cells than expressing LSD2 alone

Reference: patent publication US9745384B2, “Peptides useful for modulating histone demethylase function” (The Brigham and Women's Hospital, Inc., priority 2012, dated 2017)
